We go through 2 molecules from paper PMC9458469 (The Journal of Cell Biology, 2022).

Series [1] deals with Hsp-12.1 (purified) (C. elegans). Description: SEC. For orientation: Size exclusion chromatography separates by hydrodynamic size, large species first.
The series “SEC” deals with the molecule itself. The experiment in a line: SEC.

Usually stoichiometry N stands for the number of molecules, sites or subunits per partner or assembly. Consider Hsp-12.1 (purified) (natural protein), for which, in series [1], the stoichiometry N came out at 4 subunits.

B1: Hsp-16.1 (purified) (natural protein, C. elegans, UniProt P34696 1-145, looked up)
chain: MSLYHYFRPAQRSVFGDLMRDMAQMERQFTPVCRGSPSESSEIVNNDQKFAINLNVSQFKPEDLKINLDGHTLSIQGEQELKTEHGYSKKSFSRVILLPEDVDVGAVASNLSEDGKLSIEAPKKEAIQGRSIPIQQAPVEQKTSE
Turning to B1, the “stoichiometry N” value in “SEC” is around 34 subunits.
